Experimental data reported in article PMC7022617, “Structural and Functional Aspects of G-Quadruplex Aptamers Which Bind a Broad Range of Influenza A Viruses”.

Molecular target: hemagglutinin HA1 subunit H5 (recombinant, Abcam ab190125) (Influenza A virus A/Vietnam/1203/2004 …, UniProt Q6DQ33 17-346)
Assay: SPR; 10 mM K+
Conditions: protein: commercial

| Binder | Kd (parallel intramolecular G4) | Kd |
| --- | --- | --- |
| TTGGGGTTATTAAGGGAGGGCGGGGGTT (structured_DNA) [G7-TTATTAA] | 0.03 ± 0.01 µM | – |
| TTGGGGTTAGGGAGGGCGGGGGTT (structured_DNA) [G7-TTA] | – | 0.02 ± 0.006 µM |
| TTGGGGTTATTTTGGGAGGGCGGGGGTT (structured_DNA) [RHA0385] | – | 0.013 ± 0.003 µM |
| TTGGGGTAAGAAGGGAGGGCGGGGGTT (structured_DNA) [G7-TAAGAA] | – | 0.06 ± 0.01 µM |
